This passage reports self-cleavage results from the RNAGym collection of RNA variant scans (doi:10.7554/elife.80360).

B1: HDV Ribozyme (parent)
chain: GGCCGGCAUGGUCCCAGCCUCCUCGCUGGCGCCGGCUGGGCAACAUUCCGAGGGGACCGUCCCCUCGGUAAUGGCGAAUGGGACCCA

The data set covers variants of B1. The experiment in a line: self-cleavage, relative activity (ratio to wild type); higher = more cleavage; co-transcriptional.
In the case of A71C G82C, the self-cleavage turned out to be 0.268.

For U69C G73A, the self-cleavage worked out at 0.653.

Turning to C75A A87G, the self-cleavage came to 0.251.

As for A70G C75U, the self-cleavage stood at 0.136.

Take A70G C75G: the self-cleavage was found to be 0.219.

In the case of U72G C85A, the self-cleavage is 0.653.

With C66G U79G, the self-cleavage came to 0.772.

With G67C, the self-cleavage was 0.976.

Take G67U: the self-cleavage was determined as 0.999.

Consider G67A, for which the self-cleavage was 0.967.

Consider U69A G80A, for which the self-cleavage stood at 0.434.

With G68U A87C, the self-cleavage was 1.01.

On to G67C A87G, for which the self-cleavage is 0.961.

For the variant U72G G82C, the self-cleavage is 0.453.

Consider U72G G73A, for which the self-cleavage was 0.707.

A70G U72G: the self-cleavage was determined as 0.582.

Turning to G68U U72C, the self-cleavage was found to be 0.237.

For G74C G80U, the self-cleavage is 0.127.

In the case of U72G C86G, the self-cleavage worked out at 0.6.

U72G C86A: the self-cleavage came out at 1.16.

In the case of U69C C84G, the self-cleavage was determined as 0.875.

In the case of U69C C84A, the self-cleavage was 1.09.

Regarding G73U A87G, the self-cleavage stood at 0.452.

With U69C G82A, the self-cleavage is 0.246.

For the variant G73A G76C, the self-cleavage amounted to 0.516.

As to A71G G76A, the self-cleavage stood at 1.

Turning to A71G G76C, the self-cleavage is 0.73.

With G74C A83G, the self-cleavage stood at 0.104.

With G68C G81U, the self-cleavage is 0.123.

As to A70U C84A, the self-cleavage is 0.969.

G74U C85G: the self-cleavage is 0.617.

Take G73C U79A: the self-cleavage worked out at 0.302.

For the variant U72A U79A, the self-cleavage stood at 0.536.

Regarding U72A U79G, the self-cleavage stood at 0.361.

As for C66U U72C, the self-cleavage was 0.518.

Take C66U U72A: the self-cleavage was determined as 0.525.

U69G C75A: the self-cleavage was determined as 0.107.

Turning to U72A G73C, the self-cleavage was determined as 0.628.

As for A71U C75A, the self-cleavage was 0.0739.

As for G67A U79G, the self-cleavage is 0.807.

Consider A70U C85U, for which the self-cleavage worked out at 0.746.

Turning to A70U C85A, the self-cleavage came out at 1.06.

Consider G74A G76A, for which the self-cleavage was determined as 0.443.

As for U69A A87U, the self-cleavage is 0.913.

For U72A C84G, the self-cleavage turned out to be 0.213.

For the variant U72A C84U, the self-cleavage is 0.578.

On to A71G G82C, for which the self-cleavage is 0.151.

As to A71U G76U, the self-cleavage amounted to 1.17.

In the case of U69C U79A, the self-cleavage amounted to 0.684.

A70U A78C: the self-cleavage turned out to be 0.0941.

Turning to G73U G82A, the self-cleavage was 0.135.

Consider G67U A87C, for which the self-cleavage turned out to be 0.925.

As to G73U G76C, the self-cleavage turned out to be 0.158.

In the case of G73U G76A, the self-cleavage turned out to be 0.208.

Turning to G73C G81C, the self-cleavage is 0.0292.

With A70C G82U, the self-cleavage stood at 0.166.

On to A71G G81U, for which the self-cleavage was 0.291.

Regarding C66U A77U, the self-cleavage was determined as 0.501.

As for G67C G74U, the self-cleavage turned out to be 0.332.

On to G67C G74A, for which the self-cleavage came to 0.415.

As to A71G U72C, the self-cleavage came to 0.705.

For A71G U72A, the self-cleavage is 0.573.

As to U72C G73A, the self-cleavage stood at 0.407.

For the variant U72C G73C, the self-cleavage turned out to be 0.208.

As to G67U G73C, the self-cleavage was 0.437.

For the variant G73A A83G, the self-cleavage stood at 0.511.

For the variant U72C A78U, the self-cleavage is 0.249.

As to G67A G73U, the self-cleavage came to 0.227.

Take G67A G73C: the self-cleavage came to 0.13.

Take U69C A87G: the self-cleavage came to 1.1.

As for U72A C86U, the self-cleavage was found to be 0.957.

In the case of G74C G81U, the self-cleavage is 0.0831.

Take U72C A77G: the self-cleavage was determined as 0.229.

For U72C A77U, the self-cleavage stood at 0.285.

With G74A U79C, the self-cleavage amounted to 0.118.

Take U69A A83C: the self-cleavage was 0.499.

Take U69A A83U: the self-cleavage was 0.427.

As to G74U G76U, the self-cleavage was determined as 0.794.

Consider G74U G76C, for which the self-cleavage amounted to 0.831.

As for U69G A77U, the self-cleavage stood at 0.375.

Consider G68U G81C, for which the self-cleavage was found to be 0.223.

Regarding G74C A77U, the self-cleavage was determined as 0.104.

With G68U G82C, the self-cleavage came to 0.215.

Take A71G G74U: the self-cleavage is 0.658.

As for A71G G74C, the self-cleavage came out at 0.383.

For A71G G74A, the self-cleavage was 0.4.

Regarding G67A A77G, the self-cleavage came to 0.712.

With G68U G76U, the self-cleavage was determined as 1.09.

As to C66U A71U, the self-cleavage amounted to 0.936.

Regarding A70G A87G, the self-cleavage worked out at 1.01.

With G74U C84U, the self-cleavage amounted to 0.213.

In the case of U69A C85U, the self-cleavage amounted to 0.831.

For the variant G67A G74A, the self-cleavage was found to be 0.403.

Take G67A G74C: the self-cleavage turned out to be 0.132.

A71C G76A: the self-cleavage came out at 0.935.

Regarding A71C G76C, the self-cleavage amounted to 0.848.

On to G68C G76A, for which the self-cleavage stood at 1.04.

Consider U72C G81U, for which the self-cleavage was 0.148.

A70C A71G: the self-cleavage turned out to be 0.831.

As for A70C A71C, the self-cleavage turned out to be 0.762.

With A71G A87C, the self-cleavage is 1.03.

As to C75A G76U, the self-cleavage amounted to 0.289.

In the case of C75A G76A, the self-cleavage turned out to be 0.166.

As for U72C G80C, the self-cleavage stood at 0.19.

In the case of G68A A78C, the self-cleavage is 0.0733.

Take G68A A78U: the self-cleavage is 0.277.

With G67U C75A, the self-cleavage stood at 0.0426.

In the case of G73U A83U, the self-cleavage stood at 0.0462.

For the variant A70G C86U, the self-cleavage turned out to be 1.23.

Take G68C G74U: the self-cleavage came to 0.394.

For G74U C86G, the self-cleavage was 0.485.

With A70G A71U, the self-cleavage worked out at 0.852.

Take G67A G68C: the self-cleavage amounted to 0.707.

Take G68U A70G: the self-cleavage was 0.95.

As to U69C A78G, the self-cleavage came out at 0.831.

Take U72C C75G: the self-cleavage came out at 0.166.

A71C C86G: the self-cleavage worked out at 0.63.

With G67A G76A, the self-cleavage is 0.975.

A71U G73U: the self-cleavage was determined as 0.237.

In the case of C66U C85G, the self-cleavage worked out at 0.923.

For C66U C85U, the self-cleavage was determined as 0.888.

On to U69C G80A, for which the self-cleavage is 0.305.

Take G67U U72C: the self-cleavage is 0.53.

In the case of G73C G80C, the self-cleavage stood at 0.109.

A71C G80A: the self-cleavage was 0.266.

As for A71C G80U, the self-cleavage worked out at 0.182.

Take A71G G80C: the self-cleavage is 0.271.

Take A70G G73C: the self-cleavage was found to be 0.356.

As for G68A G81U, the self-cleavage came out at 0.124.

For A71C G81U, the self-cleavage was 0.17.

Turning to G68U U79G, the self-cleavage amounted to 0.374.

With G68U U79A, the self-cleavage came to 0.928.

Turning to C66U G67C, the self-cleavage was determined as 1.16.

For G68A C84U, the self-cleavage is 0.872.

As for G68A C84G, the self-cleavage amounted to 0.475.

With G74A, the self-cleavage was determined as 0.478.

On to G74U, for which the self-cleavage came out at 0.569.

For G74C, the self-cleavage came to 0.213.

On to U69G A70G, for which the self-cleavage worked out at 0.767.

As for U69G A70U, the self-cleavage worked out at 0.95.

As for U72C G74U, the self-cleavage was 0.584.

Regarding G68U C84U, the self-cleavage was determined as 0.511.

For G68U C84A, the self-cleavage stood at 0.816.

With G68C C85U, the self-cleavage stood at 0.892.

U69A C84G: the self-cleavage came out at 0.578.

U69G C86A: the self-cleavage is 0.917.

Regarding U69G C86G, the self-cleavage came to 0.692.

As for G73U C86G, the self-cleavage turned out to be 0.354.

As for U69A U79A, the self-cleavage is 0.665.

Take U69C G81A: the self-cleavage was determined as 0.323.

With G74U A77U, the self-cleavage was 0.346.

In the case of C66U C86G, the self-cleavage came out at 0.772.

Consider C66U C86U, for which the self-cleavage amounted to 1.15.

With G67A A70G, the self-cleavage worked out at 0.712.

As to G67U G74U, the self-cleavage came to 0.453.

As to G68C U72G, the self-cleavage was 0.356.

On to G74C A87U, for which the self-cleavage turned out to be 0.304.

Turning to G73U G80U, the self-cleavage worked out at 0.124.

Regarding G73U G80C, the self-cleavage was found to be 0.2.

G74A C75U: the self-cleavage is 0.141.

On to C66U G81C, for which the self-cleavage amounted to 0.277.

Regarding U72G G74U, the self-cleavage was determined as 0.264.

G68U C85G: the self-cleavage is 1.07.

As to G67U A70C, the self-cleavage was found to be 0.987.

On to G74A G81U, for which the self-cleavage is 0.12.

Take G74A G81A: the self-cleavage was found to be 0.213.

Take A70C A83U: the self-cleavage is 0.475.
